Measurements published in the supplement of paper PMC5998384.

Key:
HeLa Kyoto [1] = assay: melting temperature (median over replicates), in situ; higher = more thermally stable
HeLa Kyoto [2] = assay: solubility in G1/S (NP-40 vs SDS abundance) (log2 ratio); higher = more soluble; conditions: cell cycle stage: G1/S
HeLa Kyoto [3] = assay: thermal stability score vs G1/S (z-score of summed log2 fold changes over temperatures); higher = more thermally stable than in G1/S
HeLa Kyoto [4] = assay: solubility change mitosis vs G1/S (difference of NP-40 vs SDS log2 ratios) (log2 ratio difference); higher = more soluble in mitosis
[5] = cell cycle stage: early G1 (4.5 h after nocodazole release)
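For melting temperature (median over replicates), in situ in this document: HeLa Kyoto cells synchronized by double thymidine or nocodazole block, proteins quantified by TMT10plex mass spectrometry, three independent biological replicates.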
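For solubility change mitosis vs G1/S (difference of NP-40 vs SDS log2 ratios) in this document: synchronized HeLa Kyoto cells (double thymidine block for G1/S, nocodazole release for mitosis), protein amounts in NP-40 versus SDS lysates quantified by mass spectrometry, three biological replicates.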
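For solubility in G1/S (NP-40 vs SDS abundance) in this document: HeLa Kyoto cells arrested at G1/S by double thymidine block, proteins quantified by TMT10plex mass spectrometry in mild NP-40 versus SDS extracts, three biological replicates.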
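For thermal stability score vs G1/S (z-score of summed log2 fold changes over temperatures) in this document: synchronized HeLa Kyoto cells, proteins quantified by TMT10plex mass spectrometry, three biological replicates, mitosis taken 0.5 h after nocodazole release, G1/S directly after double thymidine block.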

Sequence of ZNF207 (chain, as listed by the source): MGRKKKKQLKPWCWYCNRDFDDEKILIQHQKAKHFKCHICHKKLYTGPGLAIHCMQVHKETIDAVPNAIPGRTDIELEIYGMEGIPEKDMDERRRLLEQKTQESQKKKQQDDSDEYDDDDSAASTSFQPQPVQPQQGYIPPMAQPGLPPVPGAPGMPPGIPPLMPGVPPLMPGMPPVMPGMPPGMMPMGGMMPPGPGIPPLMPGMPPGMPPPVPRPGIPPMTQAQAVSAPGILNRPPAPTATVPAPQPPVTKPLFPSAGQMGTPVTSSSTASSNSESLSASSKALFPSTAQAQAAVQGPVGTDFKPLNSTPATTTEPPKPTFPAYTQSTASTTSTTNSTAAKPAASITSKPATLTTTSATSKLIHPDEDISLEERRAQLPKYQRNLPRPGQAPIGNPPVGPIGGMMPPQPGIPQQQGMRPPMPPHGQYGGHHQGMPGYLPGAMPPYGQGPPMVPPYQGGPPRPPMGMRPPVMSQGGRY

MTDNIPLQPVRQKKRMDSRPRAGCCEWLRCCGGGEARPRTVWLGHPEKRDQRYPRNVINNQKYNFFTFLPGVLFNQFKYFFNLYFLLLACSQFVPEMRLGALYTYWVPLGFVLAVTVIREAVEEIRCYVRDKEVNSQVYSRLTARGTVKVKSSNIQVGDLIIVEKNQRVPADMIFLRTSEKNGSCFLRTDQLDGETDWKLRLPVACTQRLPTAADLLQIRSYVYAEEPNIDIHNFVGTFTREDSDPPISESLSIENTLWAGTVVASGTVVGVVLYTGRELRSVMNTSNPRSKIGLFDLEVNCLTKILFGALVVVSLVMVALQHFAGRWYLQIIRFLLLFSNIIPISLRVNLDMGKIVYSWVIRRDSKIPGTVVRSSTIPEQLGRISYLLTDKTGTLTQNEMIFKRLHLGTVAYGLDSMDEVQSHIFSIYTQQSQDPPAQKGPTLTTKVRRTMSSRVHEAVKAIALCHNVTPVYESNGVTDQAEAEKQYEDSCRVYQASSPDEVALVQWTESVGLTLVGRDQSSMQLRTPGDQILNFTILQIFPFTYESKRMGIIVRDESTGEITFYMKGADVVMAGIVQYNDWLEEECGNMAREGLRVLVVAKKSLAEEQYQDFEARYVQAKLSVHDRSLKVATVIESLEMEMELLCLTGVEDQLQADVRPTLETLRNAGIKVWMLTGDKLETATCTAKNAHLVTRNQDIHVFRLVTNRGEAHLELNAFRRKHDCALVISGDSLEVCLKYYEYEFMELACQCPAVVCCRCAPTQKAQIVRLLQERTGKLTCAVGDGGNDVSMIQESDCGVGVEGKEGKQASLAADFSITQFKHLGRLLMVHGRNSYKRSAALSQFVIHRSLCISTMQAVFSSVFYFASVPLYQGFLIIGYSTIYTMFPVFSLVLDKDVKSEVAMLYPELYKDLLKGRPLSYKTFLIWVLISIYQGSTIMYGALLLFESEFVHIVAISFTSLILTELLMVALTIQTWHWLMTVAELLSLACYIASLVFLHEFIDVYFIATLSFLWKVSVITLVSCLPLYVLKYLRRRFSPPSYSKLTS [ATP9A]
melting temperature (HeLa Kyoto [1]; cell cycle stage: G1/S): 57.4 °C
melting temperature (HeLa Kyoto [1]; cell cycle stage: mitosis): 58.4 °C
solubility in G1/S (log2) (HeLa Kyoto [2]): -0.6
thermal stability score (HeLa Kyoto [3]; [5]): -4.08
thermal stability score (HeLa Kyoto [3]; cell cycle stage: mitosis): -4.01
solubility change mitosis (log2) (HeLa Kyoto [4]): 0.0184

MDRPLSSSAEAEEELEWQVASRRRKAWAKCRSSWQASETEDLSTEATTQDEEEDEEEDLPGAQLPAAGGRGNVPNEKIAIWLKDCRTPLGASLDEQSSSTLKGVLVRNGGSFEDDLSLGAEANHLHESDAQIENCNNILAKERRLQFHQKGRSMNSTGSGKSSGTVSSVSELLELYEEDPEEILYNLGFGRDEPDIASKIPSRFFNSSSFAKGIDIKVFLSAQMQRMEVENPNYALTSRFRQIEVLTTVANAFSSLYSQVSGTPLQRIGSMSSVTSNKETDPPPPLTRSNTANRLMKTLSKLNLCVDKTEKGESSSPSPSAEKGKILNVSVIEESGNKNDQKSQKIMKKKESSSMLATVKEEVSGSSAAVTENADSDRISDEANSNFNQGTENEQSKETQSHESKLGEESGIVESKLDSDFNISSHSELENSSELKSVHISTPEKEPCAPLTIPSIRNIMTQQKDSFEMEEVQSTEGEAPHVPATYQLGLTKSKRDHLLRTASQHSDSSGFAEDSTDCLSLNHLQVQESLQAMGSSADSCDSETTVTSLGEDLATPTAQDQPYFNESEEESLVPLQKGLEKAAAVADKRKSGSQDFPQCNTIENTGTKQSTCSPGDHIIEITEVEEDLFPAETVELLREASAESDVGKSSESEFTQYTTHHILKSLASIEAKCSDMSSENTTGPPSSMDRVNTALQRAQMKVCSLSNQRMGRSLLKSKDLLKQRYLFAKAGYPLRRSQSLPTTLLSPVRVVSSVNVRLSPGKETRCSPPSFTYKYTPEEEQELEKRVMEHDGQSLVKSTIFISPSSVKKEEAPQSEAPRVEECHHGRTPTCSRLAPPPMSQSTCSLHSIHSEWQERPLCEHTRTLSTHSVPNISGATCSAFASPFGCPYSHRHATYPYRVCSVNPPSAIEMQLRRVLHDIRNSLQNLSQYPMMRGPDPAAAPYSTQKSSVLPLYENTFQELQVMRRSLNLFRTQMMDLELAMLRQQTMVYHHMTEEERFEVDQLQGLRNSVRMELQDLELQLEERLLGLEEQLRAVRMPSPFRSSALMGMCGSRSADNLSCPSPLNVMEPVTELMQEQSYLKSELGLGLGEMGFEIPPGESSESVFSQATSESSSVCSGPSHANRRTGVPSTASVGKSKTPLVARKKVFRASVALTPTAPSRTGSVQTPPDLESSEEVDAAEGAPEVVGPKSEVEEGHGKLPSMPAAEEMHKNVEQDELQQVIREIKESIVGEIRREIVSGLLAAVSSSKASNSKQDYH [SSFA2]
melting temperature (HeLa Kyoto [1]; cell cycle stage: G1/S): 50.8 °C
melting temperature (HeLa Kyoto [1]; cell cycle stage: mitosis): 49.8 °C
solubility in G1/S (log2) (HeLa Kyoto [2]): -0.81
thermal stability score (HeLa Kyoto [3]; [5]): -1.42
thermal stability score (HeLa Kyoto [3]; cell cycle stage: mitosis): -0.947
solubility change mitosis (log2) (HeLa Kyoto [4]): 0.802

MAQPPPDVEGDDCLPAYRHLFCPDLLRDKVAFITGGGSGIGFRIAEIFMRHGCHTVIASRSLPRVLTAARKLAGATGRRCLPLSMDVRAPPAVMAAVDQALKEFGRIDILINCAAGNFLCPAGALSFNAFKTVMDIDTSGTFNVSRVLYEKFFRDHGGVIVNITATLGNRGQALQVHAGSAKAAVDAMTRHLAVEWGPQNIRVNSLAPGPISGTEGLRRLGGPQASLSTKVTASPLQRLGNKTEIAHSVLYLASPLASYVTGAVLVADGGAWLTFPNGVKGLPDFASFSAKL [DECR2]
melting temperature (HeLa Kyoto [1]; cell cycle stage: G1/S): 51.9 °C
melting temperature (HeLa Kyoto [1]; cell cycle stage: mitosis): 52.1 °C
solubility in G1/S (log2) (HeLa Kyoto [2]): 0.0495
thermal stability score (HeLa Kyoto [3]; [5]): 1.32
thermal stability score (HeLa Kyoto [3]; cell cycle stage: mitosis): 0.657
solubility change mitosis (log2) (HeLa Kyoto [4]): -0.232

MLSPQRVAAAASRGADDAMESSKPGPVQVVLVQKDQHSFELDEKALASILLQDHIRDLDVVVVSVAGAFRKGKSFILDFMLRYLYSQKESGHSNWLGDPEEPLTGFSWRGGSDPETTGIQIWSEVFTVEKPGGKKVAVVLMDTQGAFDSQSTVKDCATIFALSTMTSSVQIYNLSQNIQEDDLQQLQLFTEYGRLAMDEIFQKPFQTLMFLVRDWSFPYEYSYGLQGGMAFLDKRLQVKEHQHEEIQNVRNHIHSCFSDVTCFLLPHPGLQVATSPDFDGKLKDIAGEFKEQLQALIPYVLNPSKLMEKEINGSKVTCRGLLEYFKAYIKIYQGEDLPHPKSMLQATAEANNLAAAASAKDIYYNNMEEVCGGEKPYLSPDILEEKHCEFKQLALDHFKKTKKMGGKDFSFRYQQELEEEIKELYENFCKHNGSKNVFSTFRTPAVLFTGIVALYIASGLTGFIGLEVVAQLFNCMVGLLLIALLTWGYIRYSGQYRELGGAIDFGAAYVLEQASSHIGNSTQATVRDAVVGRPSMDKKAQ [ATL3]
melting temperature (HeLa Kyoto [1]; cell cycle stage: G1/S): 52.2 °C
melting temperature (HeLa Kyoto [1]; cell cycle stage: mitosis): 51.7 °C
solubility in G1/S (log2) (HeLa Kyoto [2]): -0.00471
thermal stability score (HeLa Kyoto [3]; [5]): -0.0896
thermal stability score (HeLa Kyoto [3]; cell cycle stage: mitosis): 0.487
solubility change mitosis (log2) (HeLa Kyoto [4]): -0.139

MSDYSTGGPPPGPPPPAGGGGGAGGAGGGPPPGPPGAGDRGGGGPGGGGPGGGSAGGPSQPPGGGGPGIRKDAFADAVQRARQIAAKIGGDAATTVNNSTPDFGFGGQKRQLEDGDQPESKKLASQGDSISSQLGPIHPPPRTSMTEEYRVPDGMVGLIIGRGGEQINKIQQDSGCKVQISPDSGGLPERSVSLTGAPESVQKAKMMLDDIVSRGRGGPPGQFHDNANGGQNGTVQEIMIPAGKAGLVIGKGGETIKQLQERAGVKMILIQDGSQNTNVDKPLRIIGDPYKVQQACEMVMDILRERDQGGFGDRNEYGSRIGGGIDVPVPRHSVGVVIGRSGEMIKKIQNDAGVRIQFKQDDGTGPEKIAHIMGPPDRCEHAARIINDLLQSLRSGPPGPPGGPGMPPGGRGRGRGQGNWGPPGGEMTFSIPTHKCGLVIGRGGENVKAINQQTGAFVEISRQLPPNGDPNFKLFIIRGSPQQIDHAKQLIEEKIEGPLCPVGPGPGGPGPAGPMGPFNPGPFNQGPPGAPPHAGGPPPHQYPPQGWGNTYPQWQPPAPHDPSKAAAAAADPNAAWAAYYSHYYQQPPGPVPGPAPAPAAPPAQGEPPQPPPTGQSDYTKAWEEYYKKIGQQPQQPGAPPQQDYTKAWEEYYKKQAQVATGGGPGAPPGSQPDYSAAWAEYYRQQAAYYGQTPGPGGPQPPPTQQGQQQAQ [KHSRP]
melting temperature (HeLa Kyoto [1]; cell cycle stage: G1/S): 55.4 °C
melting temperature (HeLa Kyoto [1]; cell cycle stage: mitosis): 55.7 °C
solubility in G1/S (log2) (HeLa Kyoto [2]): 0.523
thermal stability score (HeLa Kyoto [3]; [5]): 1.92
thermal stability score (HeLa Kyoto [3]; cell cycle stage: mitosis): 1.64
solubility change mitosis (log2) (HeLa Kyoto [4]): 0.0471

MLCGRPRSSSDNRNFLRERAGLSSAAVQTRIGNSAASRRSPAARPPVPAPPALPRGRPGTEGSTSLSAPAVLVVAVAVVVVVVSAVAWAMANYIHVPPGSPEVPKLNVTVQDQEEHRCREGALSLLQHLRPHWDPQEVTLQLFTDGITNKLIGCYVGNTMEDVVLVRIYGNKTELLVDRDEEVKSFRVLQAHGCAPQLYCTFNNGLCYEFIQGEALDPKHVCNPAIFRLIARQLAKIHAIHAHNGWIPKSNLWLKMGKYFSLIPTGFADEDINKRFLSDIPSSQILQEEMTWMKEILSNLGSPVVLCHNDLLCKNIIYNEKQGDVQFIDYEYSGYNYLAYDIGNHFNEFAGVSDVDYSLYPDRELQSQWLRAYLEAYKEFKGFGTEVTEKEVEILFIQVNQFALASHFFWGLWALIQAKYSTIEFDFLGYAIVRFNQYFKMKPEVTALKVPE [ETNK1]
melting temperature (HeLa Kyoto [1]; cell cycle stage: G1/S): 53 °C
melting temperature (HeLa Kyoto [1]; cell cycle stage: mitosis): 51.9 °C
solubility in G1/S (log2) (HeLa Kyoto [2]): -0.0579
thermal stability score (HeLa Kyoto [3]; [5]): -1.17
thermal stability score (HeLa Kyoto [3]; cell cycle stage: mitosis): -1.91
solubility change mitosis (log2) (HeLa Kyoto [4]): -0.288

ZNF207
melting temperature (HeLa Kyoto [1]; cell cycle stage: G1/S): 55.8 °C
melting temperature (HeLa Kyoto [1]; cell cycle stage: mitosis): 55.4 °C
solubility in G1/S (log2) (HeLa Kyoto [2]): 0.0156
thermal stability score (HeLa Kyoto [3]; [5]): -5.35
thermal stability score (HeLa Kyoto [3]; cell cycle stage: mitosis): -6.05
solubility change mitosis (log2) (HeLa Kyoto [4]): 0.36
